Kd, EC50 and IC50 data for 2 molecules are collected here from patent US20260373285 (published 2026).

The target of experiment [1] is T1, hPD-L1(ECD)-His (human, UniProt Q9NZQ7). In words: SPR. In general terms: In SPR one partner is held on a chip, and binding of the other changes the refractive index at the surface.
Experiment [2] concerns the target T2, human PD-L1 full length (on CHO cells) (human, UniProt Q9NZQ7). In words: FACS. Background: Flow cytometry measures light scatter and fluorescence of single cells or particles in a stream.
The target of the next experiment is cPD-L1(ECD)-His (cynomolgus). Briefly: ELISA. On the technique in general: An ELISA detects its analyte on a solid surface through an enzyme-linked reagent.
Experiment [3] addresses T1, hPD-L1(ECD)-His. Briefly: ELISA.
Experiment [4] concerns the target T2, human PD-L1 full length (on CHO cells). Briefly: competition FACS vs CD80.
For experiment [5] the target is unchanged. Briefly: competition FACS vs PD-1.
Experiment [6] addresses T1, hPD-L1(ECD)-His. Briefly: SPR. The source holds these as a separate data set.
Experiment [7] addresses T1, hPD-L1(ECD)-His. Briefly: SPR. The source holds these as a separate data set.
In experiment [8] the target is T1, hPD-L1(ECD)-His. Briefly: SPR supernatant.

T1 sequence (Q9NZQ7 19-238): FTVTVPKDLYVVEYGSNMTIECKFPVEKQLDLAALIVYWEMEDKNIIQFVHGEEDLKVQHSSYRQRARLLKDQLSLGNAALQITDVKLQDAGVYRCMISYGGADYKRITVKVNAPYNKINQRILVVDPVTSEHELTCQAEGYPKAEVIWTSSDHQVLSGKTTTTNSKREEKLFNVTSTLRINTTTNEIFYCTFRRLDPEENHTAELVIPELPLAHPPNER
T2 sequence (Q9NZQ7 19-238): as above
cPD-L1(ECD)-His (cynomolgus), sequence (chain, as listed by the source): as the sequence (Q9NZQ7 19-238) above, with A33T, A34S, S62N, R68Q, Q82R, F173L, T185A, T192I, H215L counted along it

B1: PD-L1-1.168.15 (antibody, V domains shown)
VH: EVQLQQSGAELVKPGASVKLSCTVSGFNIEDTYIYWVKQRPEQGLEWIGWIDPANYNTKYDPRFQDKATVTVDTSSNTAYMHLSSLTSEDTAVYYCARGLRLLMDYWGQGTSVTVSS
VL: DIVMTQSQKFMSSSVGDRVSITCKASQNVHTSLAWYQQRPGQSPKALIYLASNRHTGVPDRFTGSGSGTDFTLTISNVQSEDLADYFCLQHWNYPLTFGAGTKLELRR
In the case of B1, the affinity with hPD-L1(ECD)-His [1], expressed as Kd, was 295 pM. Further, the EC50 – broadly, the concentration giving half of the maximal effect – in experiment [2] is 1020 pM; with cPD-L1(ECD)-His, 380 pM; with hPD-L1(ECD)-His [3] it was 28 pM. For the same molecule, the IC50 (commonly the concentration needed to halve the response being measured) was 2070 pM in experiment [4] and 3000 pM in [5].

B2: PD-L1-1.168.15-z4-uIgG1K (antibody, V domains shown)
VH: EVQLVQSGAEVKKPGATVKISCKVSGFNIEDTYIYWVQQAPGKGLEWMGWIDPANYNTKYDPRFQDRVTITVDTSTDTAYMELSSLRSEDTAVYYCARGLRLLMDYWGQGTTVTVSS
VL: DIQLTQSPSFLSASVGDRVTITCKASQNVHTSLAWYQQKPGKSPKLLIYLASNRHTGVPSRFSGSGSGTEFTLTISSLQPEDFATYYCLQHWNYPLTFGQGTKLEIKR
Regarding B2, the Kd (usually a measure of binding affinity in units of concentration) in the experiment with hPD-L1(ECD)-His [6] stood at 613 pM; with hPD-L1(ECD)-His [7], 648 pM; in the experiment with hPD-L1(ECD)-His [8], 775 pM.
